Data on four molecules can be found in patent US9872922B2, “Anti-EFNA4 antibody-drug conjugates” (PFIZER, INC., priority 2013, dated 2018).

The target in experiment [1] is T1, human EFNA4 (Homo sapiens, UniProt P52798).
T1 sequence (P52798 26-170): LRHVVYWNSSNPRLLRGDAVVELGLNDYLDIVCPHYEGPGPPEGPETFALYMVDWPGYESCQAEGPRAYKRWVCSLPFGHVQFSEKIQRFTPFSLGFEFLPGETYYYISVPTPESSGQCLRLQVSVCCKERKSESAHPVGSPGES
The experiment in a line: Biacore affinity of anti-EFNA4 antibodies for EFNA4 antigen. The note with it: Biacore system. It counts as binding. From the text:
More particularly murine antibodies E5, E15, E22 and E47 were humanized using a computer-aided CDR-grafting method (Abysis Database, UCL Business Pic.) and standard molecular engineering techniques to generate humanized antibodies E5, E15, E22 and E47, hereinafter huE5, huE15, huE22 and huE47, respectively. The human framework regions of the variable regions were selected based on their highest sequence homology to the mouse framework sequence and its canonical structure. For the purposes of the analysis the assignment of amino acids to each of the CDR domains is in accordance with the Kabat et al. numbering.
(In SPR one partner is held on a chip, and binding of the other changes the refractive index at the surface.)

Experiment [2] has as its target T2, human Ephrin-A4 (Homo sapiens, UniProt P52798).
T2 construct: purchased
T2 sequence (P52798 26-170): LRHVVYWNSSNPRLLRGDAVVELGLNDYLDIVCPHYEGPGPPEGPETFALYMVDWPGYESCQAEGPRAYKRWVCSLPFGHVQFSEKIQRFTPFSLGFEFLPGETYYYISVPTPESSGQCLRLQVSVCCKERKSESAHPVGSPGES
Kind of experiment: SPR steady state affinity of Eph receptors for Ephrin-A4. It counts as binding. To be noted: SPR BIAcore 2000, steady state affinity fit, captured Eph receptor, monomeric human Ephrin-A4 as analyte. Here is the method: The properties of Ephrin-A4 binding to Eph receptors were further analyzed. Since anti-EFNA4 antibodies bind to Ephrin-A4 while the ligand is engaged with its Eph receptor, the affinity between these two macromolecules was determined. The affinities of commercially available Eph receptors and Ephrin-A4 were directly compared by surface plasmon resonance using a BIAcore 2000 (GE Healthcare) to determine the most relevant receptor. An anti-human antibody capture kit was used to immobilize recombinant Eph receptors on a CM5 biosensor chip. Prior to each antigen injection cycle, Eph receptors at the concentration of 2 μg/mL were captured on the surface with a contact time of 2 minutes and a flow rate of 5 μL/min. The captured antibody loading from baseline was constant at 150-260 response units. Following receptor capture and 1 min baseline, monomeric human Ephrin-A4 was flowed over the surface at concentrations of 400, 241, 145, 87, 53, 32, 19 and 12 nM for a 2 minute association phase followed by a 2 minute dissociation phase at a flow rate of 10 μL/min. Following each cycle, the anti-human capture surface was regenerated with 30 seconds contact time of 3M MgCl2 at 10 μL/min.
Biacore data was processed by initially calculating an average of the response at equilibrium (Req). The Req was then plotted versus concentration (M) and the steady state affinity fit was used to calculate the affinity and theoretical Rmax. In all cases, at least 5 different analyte concentrations were used to make this calculation. All data analysis steps were completed in BiaEvaluation Software 3.1 (GE Healthcare).

B1: huE5: humanized antibody E5, VH SEQ ID NO: 5, VL SEQ ID NO: 7 (antibody, V domains shown)
VH: EVQLVESGGGLVQPGGSLRLSCAASGFTVTTYGVDWVRQAPGKGLEWLGVIWGGGSTNYNSALKSRFTISRDNSKNTLYLQMNSLRAEDTAVYYCASDWAYWGQGTLVTVSS
VL: DIQMTQSPSSLSASVGDRVTITCRASQNVGTNVAWFQQKPGKAPKSLIHSASYRYSGVPSRFSGSGSGTDFTLTISSLQPEDFATYYCQQYKRYPYTFGGGTKLEIK
Regarding B1, the “affinity for EFNA4 antigen relative to murine counterpart” value in experiment [1] is reported as “slightly lower affinity”.

B2: EphB3 (protein)
chain: GCRALEETLMDTKWVTSELAWTSHPESGWEEVSGYDEAMNPIRTYQVCNVRESSQNNWLRTGFIWRRDVQRVYVELKFTVRDCNSIPNIPGSCKETFNLFYYEADSDVASASSPFWMENPYVKVDTIAPDESFSRLDAGRVNTKVRSFGPLSKAGFYLAFQDQGACMSLISVRAFYKKCASTTAGFALFPETLTGAEPTSLVIAPGTCIPNAVEVSVPLKLYCNGDGEWMVPVGACTCATGHEPAAKESQCRPCPPGSYKAKQGEGPCLPCPPNSRTTSPAASICTCHNNFYRADSDSADSACTTVPSPPRGVISNVNETSLILEWSEPRDLGGRDDLLYNVICKKCHGAGGASACSRCDDNVEFVPRQLGLTERRVHISHLLAHTRYTFEVQAVNGVSGKSPLPPRYAAVNITTNQAAPSEVPTLRLHSSSGSSLTLSWAPPERPNGVILDYEMKYFEKSEGIASTVTSQMNSVQLDGLRPDARYVVQVRARTVAGYGQYSRPAEFETTSERGSGAQQLQEQLPL
In general, Kd refers to the equilibrium constant for the complex coming apart. The molecule B2 had a Kd in experiment [2] of 108 nM.

B3: EphA7 (protein)
chain: QAAKEVLLLDSKAQQTELEWISSPPNGWEEISGLDENYTPIRTYQVCQVMEPNQNNWLRTNWISKGNAQRIFVELKFTLRDCNSLPGVLGTCKETFNLYYYETDYDTGRNIRENLYVKIDTIAADESFTQGDLGERKMKLNTEVREIGPLSKKGFYLAFQDVGACIALVSVKVYYKKCWSIIENLAIFPDTVTGSEFSSLVEVRGTCVSSAEEEAENAPRMHCSAEGEWLVPIGKCICKAGYQQKGDTCEPCGRGFYKSSSQDLQCSRCPTHSFSDKEGSSRCECEDGYYRAPSDPPYVACTRPPSAPQNLIFNINQTTVSLEWSPPADNGGRNDVTYRILCKRCSWEQGECVPCGSNIGYMPQQTGLEDNYVTVMDLLAHANYTFEVEAVNGVSDLSRSQRLFAAVSITTGQAAPSQVSGVMKERVLQRSVELSWQEPEHPNGVITEYEIKYYEKDQRERTYSTVKTKSTSASINNLKPGTVYVFQIRAFTAAGYGNYSPRLDVATLEEATGKMFEATAVSSEQNPV
For the molecule B3, the affinity in experiment [2], expressed as Kd, was 86 nM.

B4: EphA6 (protein)
chain: WPGDCSHVSNNQVVLLDTTTVLGELGWKTYPLNGWDAITEMDEHNRPIHTYQVCNVMEPNQNNWLRTNWISRDAAQKIYVEMKFTLRDCNSIPWVLGTCKETFNLFYMESDESHGIKFKPNQYTKIDTIAADESFTQMDLGDRILKLNTEIREVGPIERKGFYLAFQDIGACIALVSVRVFYKKCPFTVRNLAMFPDTIPRVDSSSLVEVRGSCVKSAEERDTPKLYCGADGDWLVPLGRCICSTGYEEIEGSCHACRPGFYKAFAGNTKCSKCPPHSLTYMEATSVCQCEKGYFRAEKDPPSMACTRPPSAPRNVVFNINETALILEWSPPSDTGGRKDLTYSVICKKCGLDTSQCEDCGGGLRFIPRHTGLINNSVIVLDFVSHVNYTFEIEAMNGVSELSFSPKPFTAITVTTDQDAPSLIGVVRKDWASQNSIALSWQAPAFSNGAILDYEIKYYEKEHEQLTYSSTRSKAPSVIITGLKPATKYVFHIRVRTATGYSGYSQKFEFETGDETSDMAAEQGQILV
Take B4: the affinity in experiment [2], expressed as Kd, was 82 nM.
